Assay results: PMC3306252 (Nature, 2012)
Each block holds one molecule with its values, some of them ahead of it.

Columns and labels:
[1] = target: BODIPY-FL Srs2(1107-1174) (S. cerevisiae) (UniProt P12954); test: fluorescence polarisation
[2] = target: Srs2(1137-1174) (S. cerevisiae) (UniProt P12954); test: fluorescence polarisation
[3] = target: the molecule itself; test: crystal structure
[4] = target: T1, Srs2(1107-1174) Q1149E (S. cerevisiae, UniProt P12954 1107-1174, Q1149E, BODIPY-FL conjugated (FP was done with BODIPY-FL conjugated Srs2)); test: fluorescence polarisation
T1 sequence: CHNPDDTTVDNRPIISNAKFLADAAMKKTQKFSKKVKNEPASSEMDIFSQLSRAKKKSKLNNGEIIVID

[5] = target: T2, Srs2(1107-1174) D1151A (S. cerevisiae, UniProt P12954 1107-1174, D1151A, BODIPY-FL conjugated (FP was done with BODIPY-FL conjugated Srs2)); test: fluorescence polarisation
T2 sequence: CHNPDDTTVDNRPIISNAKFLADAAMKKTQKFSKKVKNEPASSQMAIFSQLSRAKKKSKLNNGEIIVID

[6] = target: T3, Srs2(1107-1174) I1152A (S. cerevisiae, UniProt P12954 1107-1174, I1152A, BODIPY-FL conjugated (FP was done with BODIPY-FL conjugated Srs2)); test: fluorescence polarisation
T3 sequence: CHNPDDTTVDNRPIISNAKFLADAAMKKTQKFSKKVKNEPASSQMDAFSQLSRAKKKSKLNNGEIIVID

[7] = target: T4, Srs2(1107-1174) F1153A (S. cerevisiae, UniProt P12954 1107-1174, F1153A, BODIPY-FL conjugated (FP was done with BODIPY-FL conjugated Srs2)); test: fluorescence polarisation
T4 sequence: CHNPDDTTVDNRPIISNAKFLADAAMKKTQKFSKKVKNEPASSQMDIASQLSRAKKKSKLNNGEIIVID

[8] = target: T5, Srs2(1107-1174) Q1155E (S. cerevisiae, UniProt P12954 1107-1174, Q1155E, BODIPY-FL conjugated (FP was done with BODIPY-FL conjugated Srs2)); test: fluorescence polarisation
T5 sequence: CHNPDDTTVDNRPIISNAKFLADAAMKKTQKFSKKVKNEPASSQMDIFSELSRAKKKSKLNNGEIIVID

[9] = target: T6, Srs2(1107-1174) L1156A (S. cerevisiae, UniProt P12954 1107-1174, L1156A, BODIPY-FL conjugated (FP was done with BODIPY-FL conjugated Srs2)); test: fluorescence polarisation
T6 sequence: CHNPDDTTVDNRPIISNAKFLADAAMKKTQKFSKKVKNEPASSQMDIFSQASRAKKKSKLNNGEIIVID

[10] = target: T7, His6-Eco1 (S. cerevisiae, UniProt P43605 1-281); test: pull-down
T7 sequence (looked up): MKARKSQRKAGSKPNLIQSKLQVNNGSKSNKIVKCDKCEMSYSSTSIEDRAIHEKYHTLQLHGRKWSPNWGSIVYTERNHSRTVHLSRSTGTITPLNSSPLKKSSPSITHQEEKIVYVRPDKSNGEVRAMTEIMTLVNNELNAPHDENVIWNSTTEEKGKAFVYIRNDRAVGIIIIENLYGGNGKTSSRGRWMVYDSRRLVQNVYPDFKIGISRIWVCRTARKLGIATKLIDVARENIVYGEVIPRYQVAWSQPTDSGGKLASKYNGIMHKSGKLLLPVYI

[11] = target: the molecule itself; test: crystal structure; remark: listed apart in the source

Molecule: SUMO_K127-PCNA^tri (PCNA K164R) (from UniProt P15873 1-258; Q12306 19-98) (complex)
Kd [1]: 25.1 nM

Molecule: SUMO_K164-PCNA^mono K127G (from UniProt P15873 1-258; Q12306 19-98) (complex)
Kd [1]: 79 nM

Molecule: SUMO_K127-PCNA^mono (PCNA K164R) (from UniProt P15873 1-258; Q12306 19-98) (complex)
Kd [1]: 14 nM

Molecule: GST-SUMO (from UniProt Q12306 1-101) (natural protein)
Kd [1]: 877 nM | fold weaker than Srs2(1107-1174) [2]: 4 fold

B3: PCNA K127G, NEM-modified (the PCNA part of SUMO_K164-PCNA^mono) (natural protein, budding yeast)
chain: MLEAKFEEASLFKRIIDGFKDCVQLVNFQCKEDGIIAQAVDDSRVLLVSLEIGVEAFQEYRCDHPVTLGMDLTSLSKILRCGNNTDTLTLIADNTPDSIILLFEDTKKDRIAEYSLKLMDIDADFLGIEELQYDSTLSLPSSEFSKIVRDLSQLSDSINIMITKETIKFVADGDIGSGSVIIKPFVDMEHPETSIKLEMDQPVDLTFGAKYLLDIIKGSSLSDRVGIRLSSEAPALFQFDLKSGFLQFFLAPKFNDEE
modifications: N-ethylmaleimide on C22 and C81; K164 conjugated to SUMO G98
binding result [11]: binds

Now from value to molecule, other results behind:

fold worse than PCNA^tri [1]: 6.5 fold
Molecule: PCNA^mono (N-ethylmaleimide-treated PCNA) (from UniProt P15873 1-258) (natural protein)

Kd [1]: 169 nM | fold weaker than Srs2(1107-1174) [2]: 3 fold
Molecule: PCNA (yeast proliferating cell nuclear antigen, trimer; variant not named) (from UniProt P15873 1-258) (natural protein)

Kd [1]: 26.3 nM | fold tighter than Srs2(1107-1174) [2]: 8 fold
Molecule: SUMO_K164-PCNA^tri K127G (from UniProt P15873 1-258; Q12306 19-98) (complex)

fold defect in Kd against wild-type Srs2(1107-1174) [4]: 3 fold | fold defect in Kd against wild-type Srs2(1107-1174) [5]: 10 fold | fold defect in Kd against wild-type Srs2(1107-1174) [6]: 60 fold | fold reduced affinity against wild-type Srs2(1107-1174) [7]: 9 fold | fold reduced affinity against wild-type Srs2(1107-1174) [8]: 31 fold | fold reduced affinity against wild-type Srs2(1107-1174) [9]: 73 fold
B1: PCNA^tri K127G (natural protein, budding yeast)
chain: MLEAKFEEASLFKRIIDGFKDCVQLVNFQCKEDGIIAQAVDDSRVLLVSLEIGVEAFQEYRCDHPVTLGMDLTSLSKILRCGNNTDTLTLIADNTPDSIILLFEDTKKDRIAEYSLKLMDIDADFLGIEELQYDSTLSLPSSEFSKIVRDLSQLSDSINIMITKETIKFVADGDIGSGSVIIKPFVDMEHPETSIKLEMDQPVDLTFGAKYLLDIIKGSSLSDRVGIRLSSEAPALFQFDLKSGFLQFFLAPKFNDEE
stoichiometry N [3]: 3

binding result [10]: binds
B2: PCNA FLKI(125-128)AAAA (natural protein, budding yeast)
chain: MLEAKFEEASLFKRIIDGFKDCVQLVNFQCKEDGIIAQAVDDSRVLLVSLEIGVEAFQEYRCDHPVTLGMDLTSLSKILRCGNNTDTLTLIADNTPDSIILLFEDTKKDRIAEYSLKLMDIDADAAAAEELQYDSTLSLPSSEFSKIVRDLSQLSDSINIMITKETIKFVADGDIGSGSVIIKPFVDMEHPETSIKLEMDQPVDLTFGAKYLLDIIKGSSLSDRVGIRLSSEAPALFQFDLKSGFLQFFLAPKFNDEE
